# Measurements taken from patent US5767250, “Complexes comprising truncated CMV gH polypeptides and escort proteins” (Chiron Corporation, dated 1998).
# B1: EC-FGF receptor, soluble extracellular domain of the human FGF receptor flg5 expressed in a baculovirus system (receptor)
# chain: RPSPTLPEQAQPWGAPVEVESFLVHPGDLLQLRCRLRDDVQSINWLRDGVQLAESNRTRITGEEVEVQDSVPADSGLYACVTSSPSGSDTTYFSVNVSDALPSSEDDDDDDDSSSEEKETDNTKPNPVAPYWTSPEKMEKKLHAVPAAKTVKFKCPSSGTPNPTLRWLKNGKEFKPDHRIGGYKVRYATWSIIMDSVVPSDKGNYTCIVENEYGSINHTYQLDVVERSPHRPILQAGLPANKTVALGSNVEFMCKVYSDPQPHIQWLKHIEVNGSKIGPDNLPYVQILKTAGVNTTDKEMEVLHLRNVSFEDAGEYTCLAGNSIGLSHHSAWLTVLEALEERPAVMTSPLYLE
# Biological target: basic FGF (human, UniProt P09038, radioiodinated (125I) in the soluble binding assay and the radioreceptor assay)
# Assay: soluble binding assay: EC-FGF receptor on concanavalin A coated wells, 125I-bFGF with increasing bFGF, Scatchard analysis
binder,measurement,value
B1,Kd,< 5 nM
